# From patent publication US20250382344A1, “Soluble GLP1/GIP/NPY2 Receptor Triple Agonists” (Boehringer Ingelheim International GmH, priority 2024, published 2025)
# *1 amine or outer side, *2 acyl side, *3 side chain or, on linkers, in order; H or OH if unused. Where no end group is shown, it is not given here. Side-chain parts run from the residue outwards. [ ]: non-standard residue; d: D form. The star is where a group is joined. C18 diacid = O=C(O)CCCCCCCCCCCCCCCCC(=O)*; γGlu = O=C(O)[C@H](CCC(=O)[*:2])N[*:1]; AEEA = NCCOCCOCC(=O)O; Aib = CC(C)(N)C(=O)O
# T1: human neuropeptide Y2 receptor (human, UniProt P49146 1-381)
# T1 sequence (looked up): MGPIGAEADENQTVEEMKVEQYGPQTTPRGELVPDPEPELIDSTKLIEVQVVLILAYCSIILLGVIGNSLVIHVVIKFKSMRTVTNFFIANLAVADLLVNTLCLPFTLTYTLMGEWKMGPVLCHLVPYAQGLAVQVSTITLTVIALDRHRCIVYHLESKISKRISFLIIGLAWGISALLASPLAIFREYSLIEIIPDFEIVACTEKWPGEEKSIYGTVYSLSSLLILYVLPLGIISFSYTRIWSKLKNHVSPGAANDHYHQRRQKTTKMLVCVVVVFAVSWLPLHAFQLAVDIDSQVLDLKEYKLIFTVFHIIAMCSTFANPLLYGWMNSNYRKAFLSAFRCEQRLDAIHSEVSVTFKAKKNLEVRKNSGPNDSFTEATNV
# T2: human GIP receptor (human, UniProt P48546 22-466)
# T2 sequence (looked up): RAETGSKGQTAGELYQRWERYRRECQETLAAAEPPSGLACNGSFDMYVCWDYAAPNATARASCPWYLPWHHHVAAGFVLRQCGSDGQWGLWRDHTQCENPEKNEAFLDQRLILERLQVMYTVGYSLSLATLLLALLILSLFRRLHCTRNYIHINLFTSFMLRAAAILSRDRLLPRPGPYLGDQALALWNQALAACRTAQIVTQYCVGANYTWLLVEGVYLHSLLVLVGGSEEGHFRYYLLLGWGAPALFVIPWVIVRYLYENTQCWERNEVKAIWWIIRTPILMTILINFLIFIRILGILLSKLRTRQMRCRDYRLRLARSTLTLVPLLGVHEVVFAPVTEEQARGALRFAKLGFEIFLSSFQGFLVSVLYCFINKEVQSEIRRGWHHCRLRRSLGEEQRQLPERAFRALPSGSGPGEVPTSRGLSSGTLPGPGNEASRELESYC
# Legend:
# Assay in all cases: cell-based or functional assay
# [1] = target: T1, human neuropeptide Y2 receptor
# human GIP receptor = target: T2, human GIP receptor
# human GLP-1 receptor = human GLP-1 receptor (human, UniProt P43220 24-463)
"EC50, CreLuc reporter, 0.5% hP [1]","EC50, CreLuc reporter, 100% hP [1]","EC50, CreLuc reporter, 0.5% hP (human GIP receptor)","EC50, CreLuc reporter, 100% hP (human GLP-1 receptor)","EC50, CreLuc reporter, 100% hP (human GIP receptor)","EC50, CreLuc reporter, 0.5% hP (human GLP-1 receptor)",Binder
20.1 nM,46.4 nM,0.5 nM,13.7 nM,–,–,"YXEGTFTSDYSIXLEKQAQXAFVRHLINKXTRQRY (Aib at 2, 13, 20, 30; Lys29 epsilon-amino: C18DA-TRX-gGlu-gGlu-gGlu-gGlu-gGlu-gGlu-eLys; C-terminal amide) [Compound 137]"
11.1 nM,86.3 nM,0.2 nM,2.3 nM,5 nM,0.3 nM,"YXEGTFTSDYSIXLDRQAQXAFVRHLINKXTRQRY (Aib at 2, 13, 20, 30; Lys29 epsilon-amino: C18DA-gGlu-gGlu-gGlu-gGlu-gGlu-gGlu-eLys; C-terminal amide) [Compound 147]"
75 nM,789 nM,0.5 nM,2.3 nM,10 nM,–,Y[Aib]EGTFTSDYSI[Aib]LEEEAQ[Aib]EFVRHLINK([AEEA-AEEA-γGlu-C18 diacid])[Aib]TRQRY-NH2 (N-terminus assumed; SMILES CC[C@H](C)[C@H](NC(=O)[C@H](CC(C)C)NC(=O)[C@H](Cc1c[nH]cn1)NC(=O)[C@H](CCCNC(=N)N)NC(=O)[C@@H](NC(=O)[C@H](Cc1ccccc1)NC(=O)[C@H](CCC(=O)O)NC(=O)C(C)(C)NC(=O)[C@H](CCC(N)=O)NC(=O)[C@H](C)NC(=O)[C@H](CCC(=O)O)NC(=O)[C@H](CCC(=O)O)NC(=O)[C@H](CCC(=O)O)NC(=O)[C@H](CC(C)C)NC(=O)C(C)(C)NC(=O)[C@@H](NC(=O)[C@H](CO)NC(=O)[C@H](Cc1ccc(O)cc1)NC(=O)[C@H](CC(=O)O)NC(=O)[C@H](CO)NC(=O)[C@@H](NC(=O)[C@H](Cc1ccccc1)NC(=O)[C@@H](NC(=O)CNC(=O)[C@H](CCC(=O)O)NC(=O)C(C)(C)NC(=O)[C@@H](N)Cc1ccc(O)cc1)[C@@H](C)O)[C@@H](C)O)[C@@H](C)CC)C(C)C)C(=O)N[C@@H](CC(N)=O)C(=O)N[C@@H](CCCCNC(=O)COCCOCCNC(=O)COCCOCCNC(=O)CC[C@H](NC(=O)CCCCCCCCCCCCCCCCC(=O)O)C(=O)O)C(=O)NC(C)(C)C(=O)N[C@H](C(=O)N[C@@H](CCCNC(=N)N)C(=O)N[C@@H](CCC(N)=O)C(=O)N[C@@H](CCCNC(=N)N)C(=O)N[C@@H](Cc1ccc(O)cc1)C(N)=O)[C@@H](C)O) [Compound 130]
213 nM,827 nM,0.4 nM,2.8 nM,7.1 nM,0.9 nM,Y[Aib]EGTFTSDYSI[Aib]LEEQAQ[Aib]EFVRHLINK([γGlu-γGlu-γGlu-γGlu-C18 diacid])[Aib]TRQRY-NH2 (N-terminus assumed; SMILES CC[C@H](C)[C@H](NC(=O)[C@H](CC(C)C)NC(=O)[C@H](Cc1c[nH]cn1)NC(=O)[C@H](CCCNC(=N)N)NC(=O)[C@@H](NC(=O)[C@H](Cc1ccccc1)NC(=O)[C@H](CCC(=O)O)NC(=O)C(C)(C)NC(=O)[C@H](CCC(N)=O)NC(=O)[C@H](C)NC(=O)[C@H](CCC(N)=O)NC(=O)[C@H](CCC(=O)O)NC(=O)[C@H](CCC(=O)O)NC(=O)[C@H](CC(C)C)NC(=O)C(C)(C)NC(=O)[C@@H](NC(=O)[C@H](CO)NC(=O)[C@H](Cc1ccc(O)cc1)NC(=O)[C@H](CC(=O)O)NC(=O)[C@H](CO)NC(=O)[C@@H](NC(=O)[C@H](Cc1ccccc1)NC(=O)[C@@H](NC(=O)CNC(=O)[C@H](CCC(=O)O)NC(=O)C(C)(C)NC(=O)[C@@H](N)Cc1ccc(O)cc1)[C@@H](C)O)[C@@H](C)O)[C@@H](C)CC)C(C)C)C(=O)N[C@@H](CC(N)=O)C(=O)N[C@@H](CCCCNC(=O)CC[C@H](NC(=O)CC[C@H](NC(=O)CC[C@H](NC(=O)CC[C@H](NC(=O)CCCCCCCCCCCCCCCCC(=O)O)C(=O)O)C(=O)O)C(=O)O)C(=O)O)C(=O)NC(C)(C)C(=O)N[C@H](C(=O)N[C@@H](CCCNC(=N)N)C(=O)N[C@@H](CCC(N)=O)C(=O)N[C@@H](CCCNC(=N)N)C(=O)N[C@@H](Cc1ccc(O)cc1)C(N)=O)[C@@H](C)O) [Compound 129]
